# Results published in US20050037969A1.
# Ends that are not written are not given here. * marks the point of attachment. Biotin = O=C1N[C@H]2[C@H](CS[C@H]2CCCCC(=O)*)N1
# Key:
# [1] = target: GST-DLG1 fusion protein (PDZ domains 1-2) (human) (UniProt Q12959); experiment: G assay titration of biotinylated peptide on plate-bound GST-PDZ, apparent affinity from saturation fit
# [2] = target: GST-NeDLG fusion protein (PDZ domains 1-2) (Mus musculus (Mouse)) (UniProt P70175); experiment: as above
# [3] = target: GST-TIP-1 PDZ domain fusion protein (Homo sapiens) (UniProt O14907); experiment: G assay competition against 20 uM TAX 20-mer
# [4] = target: GST-WWP3 (MAGI-1) fusion protein (PDZ domains 1-2) (Homo sapiens) (UniProt Q96QZ7); experiment: G assay format, competition against labeled DNAM-1 peptide
# [5] = target: GST-TIP-1 PDZ domain fusion protein (Homo sapiens) (UniProt O14907); experiment: G assay competition against CD95 20-mer
# [6] = target: GST-TIP-1 PDZ domain fusion protein (Homo sapiens) (UniProt O14907); experiment: competition for TIP1 binding, reference CD95
# [7] = target: GST-TIP-1 PDZ domain fusion protein (Homo sapiens) (UniProt O14907); experiment: G assay competition against 20 uM CD95 20-mer
binder,measurement,setting,value
"Biotin-KDITSDSENSNFRNEIQSLV [CD95 (Fas) C-terminal peptide AA13L, biotinylated]",Kd,[1],54 µM
same,Kd,[2],54 µM
RNEIQSLV [Fas (CD95) 8-mer competitor peptide RNEIQSLV (unlabeled)],IC50,[3],500 µM
"Biotin-ISGTPTSTMVHGMTSSSSVV [Clasp-2 C-terminal peptide AA2L, biotinylated]",Kd,[1],21 µM
same,Kd,[2],7.5 µM
SRRPKTRV [peptide corresponding to the C-terminal 8 amino acids of DNAM-1],inhibitor concentration giving at least 50% inhibition,[4],20 to 200 µM
KHFRETEV [8-mer peptide corresponding to the C-terminus of TAX],concentration that effectively blocked binding,[5],100 µM
same,fold better competition for binding to TIP1 than CD95,[6],1000 fold
same,IC50,[7],20 to 100 µM
